Experimental findings from patent US20230050615A1 (Ablynx, published 2023) are described below.

Usually koff stands for the first-order rate constant of dissociation. As a reminder, the Kd is the free concentration of one partner at which half of the binding sites on the other are occupied at equilibrium, for simple one-to-one binding. By kon is commonly meant a measure of how fast the partners come together.

Assay [1] deals with T1, human serum albumin (Sigma-Aldrich A3782) (human, UniProt P02768 25-609).
T1 construct: Bought protein; also called HSA; human SA
The assay is described as follows: competition ELISA on coated human serum albumin; tracer 1.5 nM [SEQ ID NO:1-cMycHis6] detected with anti-cMyc. On the technique in general: ELISA stands for enzyme-linked immunosorbent assay.

The target of assay [2] is T1, human serum albumin (Sigma-Aldrich …). The assay is described as follows: SPR (ProteOn), HSA immobilised, 500 nM injected, dissociation at pH 6.0.
Assay [3] shares this target. Description: SPR (ProteOn), HSA immobilised, 500 nM injected, dissociation at pH 5.0.
Assay [4] has the same target. Description: SPR (ProteOn XPR36), albumin immobilised, pH 7.4.
Assay [5] concerns the target T2, rat serum albumin (Sigma-Aldrich A4538) (rat, UniProt P02770 25-608).
T2 construct: Bought protein; also called rat SA
Description: SPR (ProteOn XPR36), albumin immobilised, pH 7.4.

For assay [6], the target named is T3, cynomolgus monkey serum albumin (generated in-house) (cynomolgus monkey, UniProt A2V9Z4 25-608, limits assumed).
T3 construct: also called cyno SA
The assay is described as follows: SPR (ProteOn XPR36), albumin immobilised, pH 7.4.

Assay [7] addresses T4, guinea pig serum albumin (Gentaur GPSA62) (guinea pig).
T4 construct: also called guinea pig SA
Description: SPR (ProteOn XPR36), albumin immobilised, pH 7.4.

The target of assay [8] is T5, mouse serum albumin (Albumin Bioscience 2601) (mouse, UniProt P07724 25-608).
T5 construct: Bought protein; also called mouse SA
The assay is described as follows: SPR (ProteOn XPR36), albumin immobilised, pH 7.4.

In assay [9] the target is T1, human serum albumin (Sigma-Aldrich …). Description: SPR (ProteOn), HSA immobilised, 500 nM injected, dissociation at pH 7.4.

B1: [His6Flag3-SEQ ID NO:15] (VHH)
VHH: EVQLVESGGGLVQAGGSLRLSCAASGLTFSSYAMGWFRQAPGKERERVVSISRGGGYTYYADSVKGRFTISRDNAENTVYLQMNSLKPEDTAVYYCAAARYWATGSEYEFDYWGQGTLVTVSS
notes: not shown: N-terminal His6-Flag3 tag
Take B1: the “IC50 (read off the curve)” value in [1] is roughly 0.8 nM.

B2: serum albumin binder of SEQ ID NO:15 (T0235005D04, wild type) (VHH)
VHH: B1 VHH
notes: no tag is stated for these experiments
For the molecule B2, the koff in [2] amounted to 6.9e-05 s⁻¹; in [3], 5.8e-05 s⁻¹; in [4] it was 0.00015 s⁻¹; in [5], 0.022 s⁻¹; in [6], 9.4e-05 s⁻¹; in assay [7], 0.0021 s⁻¹. Also, the results for the koff in assay [8] and in assay [9] were 0.0024 s⁻¹ and 0.00011 s⁻¹, respectively. For the same molecule, the Kd is 0.19 nM in assay [4]; 21 nM in assay [5]; 0.12 nM in [6]; 1.5 nM in assay [7]; 1.9 nM in assay [8]. For the same molecule, the kon in [4] turned out to be 810000 M⁻¹ s⁻¹; in [5], 1e+06 M⁻¹ s⁻¹; in assay [6] it was 770000 M⁻¹ s⁻¹; in assay [7], 1.4e+06 M⁻¹ s⁻¹; in [8], 1.2e+06 M⁻¹ s⁻¹.
